Measured values published in patent publication US20260258084A1, “New Peptides as Selective IL-23 Receptor Antagonists” (Sanofi, priority 2022, published 2026).
One block for each binder: values may come before it. Starred links: 1 amine or outer side, 2 acyl side, 3 side chain; linkers in the order of their positions; H or OH if unused. Positions of bridges follow the written chain, without caps; N, C: chain ends. Non-standard residues stand in square brackets, D forms with d. No end group written: not given here. *: point of attachment. Yde = (2S)-2-amino-3-[4-[2-(dimethylamino)ethoxy]phenyl]propanoic acid, CN(C)CCOc1ccc(C[C@H](N[*:1])C(=O)[*:2])cc1; Phe(4-OMe) = COc1ccc(C[C@H](N[*:1])C(=O)[*:2])cc1; Trp(7-Me) = Cc1cccc2c(C[C@H](N)C(=O)O)c[nH]c12; αMeLys(Me2) = CN(C)CCCC[C@](C)(N)C(=O)O; 2Nal = N[C@@H](Cc1ccc2ccccc2c1)C(=O)O; εLys = N[C@@H](CCCCN[*:1])C(=O)[*:2]; NMe5Ava = CN(CCCCC(=O)[*:2])[*:1]; Palmitoyl = CCCCCCCCCCCCCCCC(=O)*; 3Pal = N[C@@H](Cc1cccnc1)C(=O)O; Dad = desamino-aspartamic acid; Lys(Me) = CNCCCC[C@H](N)C(=O)O; NMeN = CN[C@@H](CC(N)=O)C(=O)O; αMeL = CC(C)C[C@](C)(N)C(=O)O; αMeK = C[C@](N)(CCCCN)C(=O)O; NMeC = CN[C@@H](CS)C(=O)O; Thp = NC1(C(=O)O)CCOCC1; Aib = CC(C)(N)C(=O)O; Ahx = NCCCCCC(=O)O; Ava = NCCCCC(=O)O; Sar = CNCC(=O)O

Molecular target: T1, IL-23 receptor on the surface of HEK-Blue IL-23 cells (UniProt Q5VWK5 24-629, limits assumed)
T1 sequence (looked up): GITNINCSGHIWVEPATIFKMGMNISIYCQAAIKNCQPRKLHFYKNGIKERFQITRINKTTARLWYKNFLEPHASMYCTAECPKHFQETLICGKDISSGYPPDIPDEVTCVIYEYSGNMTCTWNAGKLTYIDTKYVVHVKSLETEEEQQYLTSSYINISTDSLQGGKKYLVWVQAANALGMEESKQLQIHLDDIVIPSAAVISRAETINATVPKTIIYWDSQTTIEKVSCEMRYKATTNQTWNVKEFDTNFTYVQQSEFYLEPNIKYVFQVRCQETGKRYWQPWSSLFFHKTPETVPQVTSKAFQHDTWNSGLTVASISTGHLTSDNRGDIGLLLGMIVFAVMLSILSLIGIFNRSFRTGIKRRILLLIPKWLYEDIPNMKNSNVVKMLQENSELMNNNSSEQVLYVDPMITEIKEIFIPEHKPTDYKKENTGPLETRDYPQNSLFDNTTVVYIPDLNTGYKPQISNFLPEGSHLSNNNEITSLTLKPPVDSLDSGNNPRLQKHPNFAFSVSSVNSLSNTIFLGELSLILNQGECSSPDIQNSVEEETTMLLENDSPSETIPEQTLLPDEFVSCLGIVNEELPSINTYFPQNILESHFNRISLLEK
Experiment: cell-based or functional assay

pSTAT3 (nM): 0.12 nM
B1: Compound of SEQ ID NO: 72 (peptide)
peptide: [Ava]C[εLys](Ac)[Trp(7-Me)]K(Ac)C[Yde][2Nal][Aib]EN[3Pal][Sar]-NH2
modifications: lactam N-10; disulfide 2-6; also: Cys2 carboxyl joined to epsilon-NH2 of Lys3 (isopeptide bond), Lys3 alpha-N acetylated

pSTAT3 (nM): 0.07 nM
B2: Compound of SEQ ID NO: 59 (peptide)
peptide: [Ava]C[εLys](Ac)WK(Ac)C[Yde][2Nal][αMeLys(Me2)]EN[3Pal][Sar]-NH2
modifications: lactam N-10; disulfide 2-6; also: Cys2 bonded to epsilon-NH2 of Lys3, Lys3 alpha-amine acetylated (K[aAc])

pSTAT3 (nM): 0.12 nM
B3: Compound of SEQ ID NO: 74 (peptide)
peptide: [Dad][NMeC]K[Trp(7-Me)]K(Ac)C[Yde][2Nal][Thp][Lys(Me)]N[3Pal][Sar]-NH2
modifications: lactam 1-10; disulfide 2-6; not fully specified (residue 3); printed as Dad(§1)-Nmc(§3)(@2)-K[aAc](@3)-Wim-K[Ac]-C(@2)-Yde-Nal-Thp-Kme(§1)-N-Pal-Sar-NH2; also: Nmc2 carbonyl joined by amide bond to epsilon-NH2 of Lys3 (branched isopeptide), Lys3 alpha-NH2 acetylated

pSTAT3 (nM): 0.2 nM
B4: Compound of SEQ ID NO: 63 (peptide)
peptide: [Ava]CNT[Trp(7-Me)]QC[Yde][2Nal][αMeL]EN[3Pal][Sar]-NH2
modifications: lactam N-11; disulfide 2-7
SMILES: Cc1cccc2c(C[C@@H]3NC(=O)[C@H]([C@@H](C)O)NC(=O)[C@H](CC(N)=O)NC(=O)[C@@H]4CSSC[C@H](NC(=O)[C@H](CCC(N)=O)NC3=O)C(=O)N[C@@H](Cc3ccc(OCCN(C)C)cc3)C(=O)N[C@@H](Cc3ccc5ccccc5c3)C(=O)N[C@@](C)(CC(C)C)C(=O)N[C@H](C(=O)N[C@@H](CC(N)=O)C(=O)N[C@@H](Cc3cccnc3)C(=O)N(C)CC(N)=O)CCC(=O)NCCCCC(=O)N4)c[nH]c12

pSTAT3 (nM): 72.9 nM
B5: Compound of SEQ ID NO: 6 (peptide)
peptide: [Ahx]C[NMeN]TWQC[Phe(4-OMe)][2Nal][Aib]DNN-NH2
modifications: lactam N-11; disulfide 2-7
SMILES: COc1ccc(C[C@@H]2NC(=O)[C@@H]3CSSC[C@H](NC(=O)CCCCCNC(=O)C[C@@H](C(=O)N[C@@H](CC(N)=O)C(=O)N[C@@H](CC(N)=O)C(N)=O)NC(=O)C(C)(C)NC(=O)[C@H](Cc4ccc5ccccc5c4)NC2=O)C(=O)N(C)[C@@H](CC(N)=O)C(=O)N[C@@H]([C@@H](C)O)C(=O)N[C@@H](Cc2c[nH]c4ccccc24)C(=O)N[C@@H](CCC(N)=O)C(=O)N3)cc1

pSTAT3 (nM): 2.35 nM
B6: Compound of SEQ ID NO: 71 (peptide)
peptide: [Dad]CNT[Trp(7-Me)]QC[Yde][2Nal][Aib]KN[3Pal]K-NH2
modifications: lactam (positions not given here); disulfide 2-7; not fully specified (residue 14, bridges); printed as Dad(§1)-C(@2)-N-T-Wim-Q-C(@2)-Yde-Nal-Aib-K(§1)-N-Pal-K[Sema]-NH2

pSTAT3 (nM): 0.15 nM
B7: Compound of SEQ ID NO: 66 (peptide)
peptide: [Ava]C[εLys](Ac)[Trp(7-Me)]K(Ac)C[Yde][2Nal][Thp]EN[3Pal][Sar]-NH2
modifications: lactam N-10; disulfide 2-6; also: Cys2 carboxyl joined to epsilon-NH2 of Lys3 (isopeptide bond), Lys3 alpha-N acetylated

pSTAT3 (nM): 0.11 nM
B8: Compound of SEQ ID NO: 103 (peptide)
peptide: [Dad]CNT[Trp(7-Me)]K(Ac)C[Yde][2Nal][αMeL]KN[3Pal][Sar]-NH2
modifications: lactam (positions not given here); disulfide 2-7; not fully specified (bridges); printed as Dad(§1)-C(@2)-N-T-Wim-K[Ac]-C(@2)-Yde-Nal-Mle-K(§1)-N-Pal-Sar-NH2

pSTAT3 (nM): 0.1 nM
B9: Compound of SEQ ID NO: 58 (peptide)
peptide: [Ava]CNTWK(Ac)C[Yde][2Nal][αMeLys(Me2)]EN[3Pal][Sar]-NH2
modifications: lactam N-11; disulfide 2-7
SMILES: CC(=O)NCCCC[C@@H]1NC(=O)[C@H](Cc2c[nH]c3ccccc23)NC(=O)[C@H]([C@@H](C)O)NC(=O)[C@H](CC(N)=O)NC(=O)[C@@H]2CSSC[C@H](NC1=O)C(=O)N[C@@H](Cc1ccc(OCCN(C)C)cc1)C(=O)N[C@@H](Cc1ccc3ccccc3c1)C(=O)N[C@@](C)(CCCCN(C)C)C(=O)N[C@H](C(=O)N[C@@H](CC(N)=O)C(=O)N[C@@H](Cc1cccnc1)C(=O)N(C)CC(N)=O)CCC(=O)NCCCCC(=O)N2

pSTAT3 (nM): 22.6 nM
B10: Compound of SEQ ID NO: 67 (peptide)
peptide: [Ava]C[εLys](Ac)[Trp(7-Me)]K(Ac)C[Yde][2Nal][αMeK](Palmitoyl)EN[3Pal][Sar]-NH2
modifications: lactam N-10; disulfide 2-6; also: Cys2 carboxyl joined to epsilon-NH2 of Lys3 (isopeptide bond), Lys3 alpha-N acetylated

pSTAT3 (nM): 0.2 nM
B11: Compound of SEQ ID NO: 62 (peptide)
peptide: [Ava]CNT[Trp(7-Me)]QC[Yde][2Nal][Aib]EN[3Pal][Sar]-NH2
modifications: lactam N-11; disulfide 2-7
SMILES: Cc1cccc2c(C[C@@H]3NC(=O)[C@H]([C@@H](C)O)NC(=O)[C@H](CC(N)=O)NC(=O)[C@@H]4CSSC[C@H](NC(=O)[C@H](CCC(N)=O)NC3=O)C(=O)N[C@@H](Cc3ccc(OCCN(C)C)cc3)C(=O)N[C@@H](Cc3ccc5ccccc5c3)C(=O)NC(C)(C)C(=O)N[C@H](C(=O)N[C@@H](CC(N)=O)C(=O)N[C@@H](Cc3cccnc3)C(=O)N(C)CC(N)=O)CCC(=O)NCCCCC(=O)N4)c[nH]c12

pSTAT3 (nM): 0.1 nM
B12: Compound of SEQ ID NO: 73 (peptide)
peptide: [Ava]C[εLys](Ac)[Trp(7-Me)]K(Ac)C[Yde][2Nal][αMeL]EN[3Pal][Sar]-NH2
modifications: lactam N-10; disulfide 2-6; also: Cys2 carboxyl joined to epsilon-NH2 of Lys3 (isopeptide bond), Lys3 alpha-N acetylated

pSTAT3 (nM): 0.22 nM
B13: Compound of SEQ ID NO: 64 (peptide)
peptide: [Ava]CNT[Trp(7-Me)]K(Ac)C[Yde][2Nal][Aib]EN[3Pal][Sar]-NH2
modifications: lactam N-11; disulfide 2-7
SMILES: CC(=O)NCCCC[C@@H]1NC(=O)[C@H](Cc2c[nH]c3c(C)cccc23)NC(=O)[C@H]([C@@H](C)O)NC(=O)[C@H](CC(N)=O)NC(=O)[C@@H]2CSSC[C@H](NC1=O)C(=O)N[C@@H](Cc1ccc(OCCN(C)C)cc1)C(=O)N[C@@H](Cc1ccc3ccccc3c1)C(=O)NC(C)(C)C(=O)N[C@H](C(=O)N[C@@H](CC(N)=O)C(=O)N[C@@H](Cc1cccnc1)C(=O)N(C)CC(N)=O)CCC(=O)NCCCCC(=O)N2

pSTAT3 (nM): 0.16 nM
B14: Compound of SEQ ID NO: 60 (peptide)
peptide: [NMe5Ava]C[εLys](Ac)[Trp(7-Me)]K(Ac)C[Yde][2Nal][Aib]ENH-NH2
modifications: lactam N-10; disulfide 2-6; also: Cys2 bonded to epsilon-NH2 of Lys3, Lys3 alpha-amine acetylated (K[aAc])

pSTAT3 (nM): 3.07 nM
B15: Compound of SEQ ID NO: 69 (peptide)
peptide: [Dad][NMeC][εLys](Ac)[Trp(7-Me)]LC[Yde][2Nal][αMeL][Lys(Me)]N[3Pal][Sar]-NH2
modifications: lactam (positions not given here); disulfide 2-6; not fully specified (bridges); printed as Dad(§1)-Nmc(§3)(@2)-K[aAc](@3)-Wim-L-C(@2)-Yde-Nal-Mle-Kme(§1)-N-Pal-Sar-NH2; also: Nmc2 carboxyl joined to epsilon-NH2 of Lys3 (isopeptide bond), Lys3 alpha-N acetylated

pSTAT3 (nM): 3.94 nM
Binder: XXKXLCXXXXAXX (Dad(§1)-Nmc(§3)(@2)-K[aAc](@3)-Wim-L-C(@2)-Yde-Nal-Mie-Kme(§1)-A-Pal-Sar-NH2) [Compound of SEQ ID NO: 70]

pSTAT3 (nM): 2.69 nM
B16: Compound of SEQ ID NO: 68 (peptide)
peptide: [Dad]C[εLys](Ac)[Trp(7-Me)]LC[Yde][2Nal][αMeL][Lys(Me)]N[3Pal][Sar]-NH2
modifications: lactam (positions not given here); disulfide 2-6; not fully specified (bridges); printed as Dad(§1)-C(§3)(@2)-K[aAc](@3)-Wim-L-C(@2)-Yde-Nal-Mle-Kme(§1)-N-Pal-Sar-NH2; also: Cys2 bonded to ε-NH2 of Lys3 (isopeptide backbone)

pSTAT3 (nM): 0.09 nM
B17: Compound of SEQ ID NO: 102 (peptide)
peptide: [Dad]CNT[Trp(7-Me)]K(Ac)C[Yde][2Nal][Thp]KN[3Pal][Sar]-NH2
modifications: lactam (positions not given here); disulfide 2-7; not fully specified (bridges); printed as Dad(§1)-C(@2)-N-T-Wim-K[Ac]-C(@2)-Yde-Nal-Thp-K(§1)-N-Pal-Sar-NH2
